The results in this text go back to patent US20220252601A1 (JW BIOSCIENCE, published 2022).

Changes are numbered by the printed parent chain.

The chains are these.
T1: GRS (glycyl tRNA synthetase) (UniProt P41250 55-739, limits assumed)
T1 sequence (looked up): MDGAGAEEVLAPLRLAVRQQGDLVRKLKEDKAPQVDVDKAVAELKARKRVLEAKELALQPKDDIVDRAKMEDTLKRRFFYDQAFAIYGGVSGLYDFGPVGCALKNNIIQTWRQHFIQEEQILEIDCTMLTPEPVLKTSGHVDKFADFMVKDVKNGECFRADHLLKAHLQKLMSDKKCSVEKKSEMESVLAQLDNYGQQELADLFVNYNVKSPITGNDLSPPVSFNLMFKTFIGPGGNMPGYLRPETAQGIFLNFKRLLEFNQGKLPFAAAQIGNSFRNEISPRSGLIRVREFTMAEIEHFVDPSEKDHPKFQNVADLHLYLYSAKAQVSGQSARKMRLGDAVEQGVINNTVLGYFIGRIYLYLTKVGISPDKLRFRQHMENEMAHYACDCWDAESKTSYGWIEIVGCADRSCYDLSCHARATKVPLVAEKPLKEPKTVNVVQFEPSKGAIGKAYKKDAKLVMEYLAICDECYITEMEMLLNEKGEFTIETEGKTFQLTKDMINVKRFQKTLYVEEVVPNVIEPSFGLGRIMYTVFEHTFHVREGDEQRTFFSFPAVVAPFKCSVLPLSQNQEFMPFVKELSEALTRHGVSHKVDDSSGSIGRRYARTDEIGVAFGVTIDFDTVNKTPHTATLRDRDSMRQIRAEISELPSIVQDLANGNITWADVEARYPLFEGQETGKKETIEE

T2: CRS (cysteinyl-tRNA synthetase) (UniProt P49589 1-748, limits assumed)
T2 sequence (looked up): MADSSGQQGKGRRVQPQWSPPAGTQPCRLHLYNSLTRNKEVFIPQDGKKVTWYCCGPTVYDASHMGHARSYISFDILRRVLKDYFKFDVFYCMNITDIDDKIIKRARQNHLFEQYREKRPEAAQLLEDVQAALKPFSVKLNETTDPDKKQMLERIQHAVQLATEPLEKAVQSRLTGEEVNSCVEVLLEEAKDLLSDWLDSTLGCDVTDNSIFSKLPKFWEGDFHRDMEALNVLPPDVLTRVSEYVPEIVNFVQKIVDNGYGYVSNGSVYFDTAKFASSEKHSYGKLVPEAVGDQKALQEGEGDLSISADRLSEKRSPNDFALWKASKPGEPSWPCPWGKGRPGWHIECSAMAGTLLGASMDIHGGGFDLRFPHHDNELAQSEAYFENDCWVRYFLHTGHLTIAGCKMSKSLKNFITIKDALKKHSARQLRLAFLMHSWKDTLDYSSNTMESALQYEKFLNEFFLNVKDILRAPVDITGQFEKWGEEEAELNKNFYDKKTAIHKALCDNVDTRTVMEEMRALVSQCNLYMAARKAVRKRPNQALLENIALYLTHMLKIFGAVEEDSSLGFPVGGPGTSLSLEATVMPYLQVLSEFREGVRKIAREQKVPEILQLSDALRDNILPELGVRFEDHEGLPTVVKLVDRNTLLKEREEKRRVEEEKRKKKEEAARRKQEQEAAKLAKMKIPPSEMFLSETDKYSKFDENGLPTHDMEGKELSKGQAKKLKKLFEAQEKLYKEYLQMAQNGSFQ

T3: AIMP1 (aminoacyl tRNA synthase complex-interacting multifunctional protein 1) (UniProt Q12904 1-312, limits assumed)
T3 construct: also called p43
T3 sequence (looked up): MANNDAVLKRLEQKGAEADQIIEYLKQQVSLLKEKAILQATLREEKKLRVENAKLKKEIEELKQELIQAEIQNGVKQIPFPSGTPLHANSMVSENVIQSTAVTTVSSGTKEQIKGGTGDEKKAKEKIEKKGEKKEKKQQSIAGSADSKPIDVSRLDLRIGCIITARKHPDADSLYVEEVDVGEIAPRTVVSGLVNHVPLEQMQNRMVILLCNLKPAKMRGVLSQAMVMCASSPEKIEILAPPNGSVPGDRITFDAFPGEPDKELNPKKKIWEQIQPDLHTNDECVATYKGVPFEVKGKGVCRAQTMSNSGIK

B1: 1D4C3 (antibody, V domains shown)
VH: QAYLQQSGAELVRPGASVKMSCKASGYTFTSYNMHWVKQTPRQGLEWIGAIYPGNGDSSYNQKFKGKATLTVGKSSSTAYMQLSSLTSEDSAVYFCARWHYGSTYYAMDYWGQGTSVTVSS
VL: DIQMTQTTSSLSASLGDRVTISCRASQDISNYLNWFQQKPDGTVKLLIYYTSRLHSGVPSRFSGSGSGTDYSLTISNLEQEDFATYFCQQGKTLPHTFGGGTKLEIK
modifications: Antibody was biotin-attached in the ELISA of Example 5; site not stated.
notes: detected with anti-mouse HRP; also called 1D4C4
B2: 3B10H5 (antibody, V domains shown)
VH: B1 VH with M34L, E46K, S58T, G73D, T104S
VL: B1 VL with F36Y, Y49S, F83I, K92Y
modifications: Antibody was biotin-attached in the ELISA of Example 5; site not stated.
notes: detected with anti-mouse HRP
B3: 3B6 (antibody, V domains shown)
VH: EVQLLESGGGLVQPGGSLRLSCAASGFTFSSYSMSWVRQAPGKGLEWVSAISYDNGNTYYADSVKGRFTISRDNSKNTLYLQMNSLRAEDTAVYYCAKGATTQPHTSFDYWGQGTLVTVNS
VL: QSVLTQPPSASGTPGQRVTISCSGSSSNIGNNNVSWYQQLPGTAPKLLIYYNSHRPSGVPDRFSGSKSGTSASLAISGLRSEDEADYYCGTWDASLSAYVFGGGTKLTVL
modifications: Antibody was biotin-attached in the ELISA of Example 5; site not stated.
B4: 4G4 (antibody, V domains shown)
VH: EVQLLESGGGLVQPGGSLRLSCAASGLTFSNYAMSWVRQAPGKGLEWVSWISPGDGNKYYADSVRGRFTVSRDNSKNTLYLQMNSLRAEDTAVYYCARVTIPCRRTTCYSANGMDVWGQGTLVTVSS
VL: B3 VL with N31S, N33S, S35T, Y51H, N52D, R55P, G90A, T91A, A94D, A98G
modifications: Antibody was biotin-attached in the ELISA of Example 5; site not stated.
B5: 4H9 (antibody, V domains shown)
VH: EVQLLESGGGLVQPGGPLRLSCAASGFTFSNYAMSWVRQAPGKGLEWVSSIYPDGGGIYYADSVKGRFTISRDNSKNTLYLQMNSLRAEDTAVYYCARDLYPFGPDTFDYWGQGTLVTVSS
VL: B3 VL with N31S, N33D, S35T, Y51D, H54K, T91A, A94D, A98G
modifications: Antibody was biotin-attached in the ELISA of Example 5; site not stated.

The target of one test is KRS (lysyl tRNA synthetase) (UniProt Q15046 1-597, limits assumed). The test is described as follows: indirect ELISA, antigen coated at 1 µg/ml.
KRS (lysyl tRNA synthetase), sequence (Q15046 whole entry): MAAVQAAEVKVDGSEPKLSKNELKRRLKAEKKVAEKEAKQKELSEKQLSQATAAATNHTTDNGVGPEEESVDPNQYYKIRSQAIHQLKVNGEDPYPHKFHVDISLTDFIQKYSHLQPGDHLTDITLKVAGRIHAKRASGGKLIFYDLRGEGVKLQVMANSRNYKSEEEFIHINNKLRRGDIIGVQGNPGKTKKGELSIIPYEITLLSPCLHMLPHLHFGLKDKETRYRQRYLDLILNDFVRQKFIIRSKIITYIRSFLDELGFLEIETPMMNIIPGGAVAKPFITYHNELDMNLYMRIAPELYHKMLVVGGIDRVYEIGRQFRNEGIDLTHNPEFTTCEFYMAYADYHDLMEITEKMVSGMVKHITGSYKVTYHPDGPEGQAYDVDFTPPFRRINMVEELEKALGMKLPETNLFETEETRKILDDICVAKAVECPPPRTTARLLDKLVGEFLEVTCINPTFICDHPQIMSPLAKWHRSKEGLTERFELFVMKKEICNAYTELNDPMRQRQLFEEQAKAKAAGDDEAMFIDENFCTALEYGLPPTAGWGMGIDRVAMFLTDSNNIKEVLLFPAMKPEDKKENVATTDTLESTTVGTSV
For the molecule B1, the binding result is listed as “no binding (tested: 500 ng/ml)”.

B2: the binding result is on record as “no binding (tested: 500 ng/ml)”.

Consider B3, for which the binding result is “no binding (tested: 500 ng/ml)”.

On to B4, for which the binding result is reported as “no binding (tested: 500 ng/ml)”.

B5: the binding result was “no binding (tested: 500 ng/ml)”.

Another test addresses T1, GRS (glycyl tRNA synthetase). The test is described as follows: indirect ELISA, antigen coated at 1 µg/ml. For orientation: An ELISA detects its analyte on a solid surface through an enzyme-linked reagent.
Turning to B1, the binding result is on record as “no binding (tested: 500 ng/ml)”.

For B2, the binding result was “no binding (tested: 500 ng/ml)”.

For B3, the binding result was “no binding (tested: 500 ng/ml)”.

As for B4, the binding result was “no binding (tested: 500 ng/ml)”.

Consider B5, for which the binding result is recorded as “no binding (tested: 500 ng/ml)”.

The target of the next test is T2, CRS (cysteinyl-tRNA synthetase). The test is described as follows: indirect ELISA, antigen coated at 1 µg/ml.
As for B1, the binding result is reported as “no binding (tested: 500 ng/ml)”.

As for B2, the binding result is listed as “no binding (tested: 500 ng/ml)”.

Turning to B3, the binding result was “no binding (tested: 500 ng/ml)”.

As to B4, the binding result is given as “no binding (tested: 500 ng/ml)”.

Consider B5, for which the binding result is listed as “no binding (tested: 500 ng/ml)”.

In another test the target is T3, AIMP1 (aminoacyl tRNA synthase …). Briefly: indirect ELISA, antigen coated at 1 µg/ml.
On to B1, for which the binding result is given as “no binding (tested: 500 ng/ml)”.

With B2, the binding result is given as “no binding (tested: 500 ng/ml)”.

Take B3: the binding result is given as “no binding (tested: 500 ng/ml)”.

As to B4, the binding result is “no binding (tested: 500 ng/ml)”.

Take B5: the binding result was “no binding (tested: 500 ng/ml)”.
